Here are results for one molecule from publication doi:10.1101/2021.12.10.472131 (bioRxiv, 2021).

This test addresses T1, Par-3 PDZ1-APM (residues 309-987) (UniProt O96782 309-987).
T1 sequence (looked up): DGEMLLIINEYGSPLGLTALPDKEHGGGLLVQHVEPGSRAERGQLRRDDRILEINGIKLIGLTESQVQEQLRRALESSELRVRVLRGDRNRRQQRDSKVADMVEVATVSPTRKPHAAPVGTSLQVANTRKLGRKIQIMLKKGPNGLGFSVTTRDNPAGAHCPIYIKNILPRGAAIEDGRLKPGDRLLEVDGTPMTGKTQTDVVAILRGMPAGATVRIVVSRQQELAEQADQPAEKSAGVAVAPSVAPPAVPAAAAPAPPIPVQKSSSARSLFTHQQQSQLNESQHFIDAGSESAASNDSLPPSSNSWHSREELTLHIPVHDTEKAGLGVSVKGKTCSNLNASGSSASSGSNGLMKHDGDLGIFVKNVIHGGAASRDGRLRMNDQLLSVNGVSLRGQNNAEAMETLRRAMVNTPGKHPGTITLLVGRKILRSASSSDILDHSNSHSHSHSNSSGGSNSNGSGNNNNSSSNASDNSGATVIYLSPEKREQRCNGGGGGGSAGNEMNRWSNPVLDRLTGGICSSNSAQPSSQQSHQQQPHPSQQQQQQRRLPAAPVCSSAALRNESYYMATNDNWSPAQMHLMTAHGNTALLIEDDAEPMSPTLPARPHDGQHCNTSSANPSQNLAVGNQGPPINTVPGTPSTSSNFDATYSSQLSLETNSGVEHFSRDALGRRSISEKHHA
The test is described as follows: supernatant depletion assay.

B1: his aPKC kinase domain-PBM (residues 259-606) (domain or fragment, UniProt A1Z9X0 259-606, looked up)
chain: YSLNDFELIRVIGRGSYAKVLMVELRRTRRIYAMKVIKKALVTDDEDIDWVQTEKHVFETASNHPFLVGLHSCFQTPSRLFFVIEFVRGGDLMYHMQRQRRLPEEHARFYAAEISLALNFLHEKGIIYRDLKLDNVLLDHEGHIKLTDYGMCKEGIRPGDTTSTFCGTPNYIAPEILRGEDYGFSVDWWALGVLLYEMLAGRSPFDLAGASENPDQNTEDYLFQVILEKTIRIPRSLSVRAASVLKGFLNKNPADRLGCHRESAFMDIVSHPFFKNMDWELLERKQVTPPFKPRLDSDRDLANFPPEFTGEAVQLTPDDDHVIDNIDQSEFEGFEYVNPLLMSLEDCV
As for B1, the binding result is “binds”.
